Patent publication US20250296984A1, “THERAPEUTIC AND DIAGNOSTIC AGENTS AND USES THEREOF” (priority 2022, published 2025)

Assays:
[1] = target: T1, human proteins on HuProt Human Proteome Microarray (Homo sapiens, UniProt Q9UK22); assay: HuProt Human Proteome Microarray, off-target human proteins; type: binding; set-up: key to Z Score: Z = (F635 − mean F635 of all spots) / SD; average of duplicate spots; key to S Score: difference between this protein's Z score and the next-ranked protein's; conditions: Protein: FBXO2
T1 construct: purchased CDI Labs (HuProt); host or cells: yeast S. cerevisiae
T1 sequence (Q9UK22 1-296): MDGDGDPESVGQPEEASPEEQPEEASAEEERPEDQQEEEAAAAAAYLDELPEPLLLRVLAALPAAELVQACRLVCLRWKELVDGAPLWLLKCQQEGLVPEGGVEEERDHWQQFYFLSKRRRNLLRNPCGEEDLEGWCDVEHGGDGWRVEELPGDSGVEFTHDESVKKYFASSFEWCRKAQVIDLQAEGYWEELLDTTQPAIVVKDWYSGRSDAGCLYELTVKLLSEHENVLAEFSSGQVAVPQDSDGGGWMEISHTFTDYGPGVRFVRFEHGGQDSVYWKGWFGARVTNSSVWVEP
Text: (§1) The HuProt™ Human Proteome Microarray provides the largest number of unique, full-length, individually purified human proteins on a single microscope slide. It provides >21,000 unique human proteins, isoform variants, and protein fragments—covering 16,794 unique genes. This includes 15,889 of the 19,613 canonical human proteins described in the Human Protein Atlas, with broad coverage across protein subclasses. This allows thousands of interactions to be profiled in a high-throughput manner. The full-length recombinant proteins are expressed in the yeast S. cerevisiae, purified, and printed on glass slides in duplicate along with a set of control proteins (GST, BSA, histones, IgG, etc.). The full list of the different proteins included in the HuProt™ Human Proteome Microarray as used in this Example is provided as “List B” in the Research Disclosures publication (ISSN 0374-4353, Questel Ireland Ltd) with database numbers 707018, 707019 and 707020, each entitled “Large scale protein arrange target protein identities” and each digitally published on 27 Jan. 2023, the contents of each of which are incorporated herein by reference in their entirety, fo the purposes of the disclosure of the proteins defined by “List B”. “List B” begins in Research Disclosures publication 707018, is continued in Research Disclosures publication 707019, and concludes Research Disclosures publications 707020, and so the three publications are to be read consecutively as a single disclosure of the “List B” proteins. The HuProt™ microarray is not restricted to a particular type of surface coating, although the default is glass coated with ultrathin nitrocellulose film for the non-covalent, yet irreversible, capture of active proteins to the surface.
(§2) Samples of humanised 7B1F3 and mouse 7B1F3 antibodies were analysed for binding specificities on HuProt™ human proteome arrays. A peptide with the sequence TDVLNQSKPVTL (“Peptide 3”) was added to the arrays at 0.1 mg/ml as a control.
(§3) After blocking, the arrays were probed with the antibody samples (0.1 μg/ml) at room temperature for 1 hour. Then the arrays were washed with TBST for 10 min×3 and probed with Alexa647-anti-human IgG Fc or Alexa647-anti-mouse IgG secondary antibodies under conditions optimized by CDI Labs for signal detection.
(§4) • Non-specific hits that directly bind to the secondary antibodies were eliminated from the analysis of the samples. • CDI software was used to quantify the specificity of each individual sample to specific proteins on the array based on Z Scores. • Z score is the average Z score of the duplicate spots of a given protein (each protein is printed in duplicate on a HuProt™ array). The Z score of each spot on a given array is calculated according to the algorithm below:
(§5) Z=[F635−F635(avg)]/F635(std) • F635(avg) and F635(std) are the average and standard deviation of the F635 values of all spots on the array, respectively. • S score is the difference of the Z Scores of a given protein and the one ranked next to it. If the S score of the top hit is >3, the antibody is considered to be highly specific for the top hit. • F635 is the average foreground signal intensity of 2 replicate spots of a given protein in the detection channel (635 nm). • B635 is the average background signal intensity of 2 replicate spots of a given protein in the detection channel (635 nm).

[2] = test system: human proteins on HuProt Human Proteome Microarray; assay: as above; type: binding; set-up: key to Z Score: Z = (F635 − mean F635 of all spots) / SD; average of duplicate spots; key to S Score: difference between this protein's Z score and the next-ranked protein's
Text: as §1, §2, §3, §4, §5

B1: 7B1F3: mouse IgG1 kappa antibody against US28 ECD1 Peptide-N; VH SEQ ID NO: 211, VL SEQ ID NO: 213 (antibody, V domains shown)
VH: EVQLQQSGAELAKPGASVKMSCKASGYTFTNYWMHWVKQRPGQGLEWIGYVNPRTGYTEYNQKFKDKATLTADKSSRTAYMQLSSLTSEDSAVYSCARILNGTGFAYWGQGTLVTVSA
VL: DIVLTQSPSSLTVSVGEKFTMSCKSSQSLLYSSNQKNYLAWYQQKPGQSPKLLIYWASTRESGVPDRFTGSGSGTDFTLAISSVKPEDLAIYYCQQYYSFPLTFGAGTKLEIK
modifications: Mature form of VH sequence of 7B1F3, without the leader sequence; Mature form of VL sequence of 7B1F3, without the leader sequence
[1]
  F635: 4683
  Z Score: 13.486
[2]; Protein: AGAP2
  F635: 10020.5
  S Score: 15.511
  Z Score: 28.997
[2]; Protein: BYSL
  S Score: 0.378
[2]; Protein: CCDC97
  S Score: 0.353
[2]; Protein: DNAJB2
  F635: 3312
  S Score: 0.235
  Z Score: 9.502
[2]; Protein: EXD2
  F635: 2701.5
  S Score: 1.271
  Z Score: 7.728
[2]; Protein: FBXO2
  S Score: 2.911
[2]; Protein: LASP1
  S Score: 1.073
[2]; Protein: SYNCRIP
  F635: 2264
  S Score: 0.157
  Z Score: 6.457
[2]; Protein: TRIM33
  F635: 3231
  S Score: 1.539
  Z Score: 9.267
